Laboratory results taken from US11407811B2, “Fusion protein, preparation method therefor and use thereof” (JIANGSU RONGTAI BIOTECH CO., LTD., priority 2017, dated 2022).
Marks after values point to notes of the source that are not given here.

How the values were obtained:
Type in all cases: cell-based
lung cancer cell A549 = assay: MTT assay, proliferation of lung cancer cell A549
Method: The MTT assay was used to detect the inhibitory effect of the integrin blocker fusion protein obtained in Example 1 on the proliferation of various tumor cells, including melanoma cell B16F10, gastric cancer cell MGC-803, lung cancer cell A549, liver cancer cell Hep-G2, breast cancer cell MDA-MB-231, colon cancer cell HCT-116, human glioma U87, and cervical cancer cell Hela.
The tumor cells were cultured in a 5% CO2 incubator at 37° C. to a density of 90% or more, and collected by trypsinization. The cells were resuspended in the culture liquid and counted under a microscope. The cell concentration was adjusted to 3.0×10^4 cells/mL. The cell suspension was inoculated into a 96-well plate at 100 μL per well and cultured overnight in a 5% CO2 incubator at 37° C. […] After the cells were fully adhered, each dilution was added to a 96-well plate at 100 μL per well, respectively. […] 20 μL of 5 mg/mL MTT was added to each well of a 96-well plate, and incubation was continued for 4 hours. The medium was aspirated and 100 μL of DMSO per well were added to dissolve. The absorbance was measured at 570 nm with a microplate reader with a reference wavelength of 630 nm, and the proliferation inhibition (PI) was calculated. The formula is as follows: […]
where Ntest is the OD value of the test group and Ncontrol is the OD value of the blank control group.
The test was repeated 5 times independently. The results obtained from the test were calculated as mean±SD, and statistical t-test was performed. P<0.05 was considered as a significant difference, and P<0.01 was considered as an extremely significant difference.

[1] = system: human umbilical vein endothelial cells (HUVEC); assay: Three-dimensional transwell assay, migration of HUVEC
Method: Human umbilical vein endothelial cells (HUVECs) were cultured with endothelial cell culture fluid containing 5% fetal bovine serum and 1×ECGS in a 5% CO2 incubator at 37° C., to a confluence of 90% or more, and then inhibitory effects of fusion protein I, protein II, protein III, protein IV, and protein V on migration of endothelial cells were detected by transwell assay, in which only endothelial cells HUVEC of passage 2 to 8 were used, and the specific operation was as follows.
(1) 10 mg/mL Matrigel was diluted with a DMEM medium at a ratio of 1:4, coated on a transwell chamber membrane, and air-dried at room temperature.
(2) HUVEC cells cultured to logarithmic phase were digested with 0.2% EDTA, collected, washed twice with PBS, followed by resuspended in an endothelial cell culture liquid containing 0.1% BSA, counted under a microscope, and the cell concentration was adjusted to 1×10^5 cells/mL;
(3) Test solutions for each group were formulated and diluted to 100 μL with a cell culture liquid containing 0.1% BSA;
Groups were divided as follows:
Blank control group: a cell culture liquid containing no drug;
Endostar group: 5 mg/mL Endostar solution diluted to a predetermined concentration with a cell culture liquid containing no drug; […]
(4) The cells were inoculated into a transwell chamber at 100 μL per well, and test solutions for each group were added to the chamber. To a 24-well plate, 0.6 mL of endothelial cell culture liquid containing 5% fetal bovine serum and 1×ECGS was added to stimulate cell migration, and incubated at 5% CO2 for 24 h at 37° C.
(5) The culture liquid in the well was discarded. The cells were fixed with 90% alcohol at room temperature for 30 min, stained with 0.1% crystal violet for 10 min at room temperature, and rinsed with water. Un-migrated cells in the upper layer were gently wiped off by a cotton swab. The observation was carried out under microscope and four fields of view were selected for taking photos and counting. The migration inhibition (MI) was calculated according to the formula: […]
where Ntest is the migration cell number in the test group, and Ncontrol is the migration cell number in the blank control group.
The test was repeated 3 times independently. The results obtained from the test were calculated as mean±SD, and statistical t-test was performed. P<0.05 was considered as a significant difference, and P<0.01 was considered as an extremely significant difference.

mouse spleen lymphocytes = assay: Proliferation of mouse spleen lymphocytes (ConA, MTT); settings: for A570 nm/A630 nm / PI (%): with ConA 5 μg/mL
Method: Tris-NH4Cl was used to break the red blood cells, which were allowed to stand in an ice water bath for 4 min and centrifuged (1000 rpm, 5 min), the supernatant was discarded, and the cells were washed twice with sterile PBS.
The cells were statically cultured in a cell incubator at 37° C. for 48 h. After the completion of the culture, 20 μL of MTT was added to each well, and the culture was continued for 4 h. Finally, all the solutions in each well were discarded, 100 μL of DMSO was added to each well, and the mixture was shaken and detected by a microplate reader for OD value at 570 nm. 5 parallels were preformed for per well.

B1: Protein II: IgG2-Fc linked to antiangiogenesis polypeptide EDSM-Y via a flexible linker; SEQ ID NO: 17 (protein)
chain: ERKCCVECPPCPAPPVAGPSVFLFPPKPKDTLMISRTPEVTCVVVDVSHEDPEVQFNWYVDGVEVHNAKTKPREEQFNSTFRVVSVLTVVHQDWLNGKEYKCKVSNKGLPAPIEKTISKTKGQPREPQVYTLPPSREEMTKNQVSLTCLVKGFYPSDISVEWESNGQPENNYKTTPPMLDSDGSFFLYSKLTVDKSRWQQGNVFSCSVMHEALHNHYTQKSLSLSPGKGGGGSGGGGSGGGGSFQPVLHLVALNSPLSGGMRGIRGADFQCFQQARAVGLAGTFRAGGGGRGD
Lung cancer cell A549; dose 1 μg/mL
  A570 nm/A630 nm: 0.8885 ± 0.0374
  PI (%): 8.28%
Lung cancer cell A549; dose 2 μg/mL
  A570 nm/A630 nm: 0.7933 ± 0.0253
  PI (%): 18.11%
Lung cancer cell A549; dose 4 μg/mL
  A570 nm/A630 nm: 0.7005 ± 0.0396
  PI (%): 27.69%
Lung cancer cell A549; dose 8 μg/mL
  A570 nm/A630 nm: 0.6325 ± 0.0215
  PI (%): 34.71%
Lung cancer cell A549; dose 16 μg/mL
  A570 nm/A630 nm: 0.5923 ± 0.0192
  PI (%): 38.86%
Lung cancer cell A549; dose 16 μg/mL, listed as protein II
  PI (%): about 40%
Lung cancer cell A549; dose 32 μg/mL
  A570 nm/A630 nm: 0.5006 ± 0.0347
  PI (%): 48.32%
Lung cancer cell A549; dose 64 μg/mL
  A570 nm/A630 nm: 0.4106 ± 0.0286
  PI (%): 57.61%
Lung cancer cell A549; dose 128 μg/mL
  A570 nm/A630 nm: 0.2008 ± 0.0147
  PI (%): 79.27%
Lung cancer cell A549; dose 256 μg/mL
  A570 nm/A630 nm: 0.1165 ± 0.0159
  PI (%): 87.97%
[1]; dose 0.25 μg/mL
  MI (%): 16.12%
  Migration cell number: 2108.0 ± 75.27
[1]; dose 0.5 μg/mL
  MI (%): 52.11%
  Migration cell number: 1203.5 ± 220.14**^
[1]; dose 1 μg/mL
  MI (%): 73.06%
  Migration cell number: 677.0 ± 24.72**^
[1]; dose 2 μg/mL
  MI (%): 77.34%
  Migration cell number: 569.5 ± 270.29
[1]; dose 4 μg/mL
  MI (%): 65.86%
  Migration cell number: 858.0 ± 145.87
[1]; dose 8 μg/mL
  MI (%): 29.88%
  Migration cell number: 1762.0 ± 183.97
Mouse spleen lymphocytes; compared with the ConA group
  inhibition of mouse spleen lymphocytes: could inhibit mouse spleen lymphocytes to some extent
Mouse spleen lymphocytes; dose 8 μg/mL
  A570 nm/A630 nm: 0.5514 ± 0.0187
  PI (%): 6.84%
Mouse spleen lymphocytes; dose 32 μg/mL
  A570 nm/A630 nm: 0.4637 ± 0.0155
  PI (%): 21.66%
Mouse spleen lymphocytes; dose 128 μg/mL
  A570 nm/A630 nm: 0.3825 ± 0.0103
  PI (%): 35.38%
